Measurements: paper PMC5862502, “Coordinated regulation of Arabidopsis microRNA biogenesis and red light signaling through Dicer-like 1 and phytochrome-interacting factor 4”

Target: T1, PIF4-MBP (phytochrome-interacting factor 4) (Arabidopsis thaliana, UniProt Q8W2F3 1-430)
T1 sequence: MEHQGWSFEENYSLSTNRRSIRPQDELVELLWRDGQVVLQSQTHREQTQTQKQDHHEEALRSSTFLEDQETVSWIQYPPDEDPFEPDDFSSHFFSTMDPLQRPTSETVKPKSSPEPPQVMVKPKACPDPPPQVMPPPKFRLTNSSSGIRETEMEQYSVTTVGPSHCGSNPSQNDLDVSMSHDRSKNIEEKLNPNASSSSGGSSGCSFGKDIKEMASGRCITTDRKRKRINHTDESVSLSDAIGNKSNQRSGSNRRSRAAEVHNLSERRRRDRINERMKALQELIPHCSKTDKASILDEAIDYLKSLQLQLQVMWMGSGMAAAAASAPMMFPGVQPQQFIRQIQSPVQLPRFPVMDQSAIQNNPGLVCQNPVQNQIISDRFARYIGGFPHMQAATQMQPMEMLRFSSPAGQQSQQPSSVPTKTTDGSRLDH
Test: EMSA; 1 nM labeled probe; decreasing amounts of PIF4; unlabeled same-sequence competitor in lane 8; LightShift Chemiluminescent EMSA kit buffer (composition not given), 20 ul, 30 min on ice, 1x TBE polyacrylamide gel
Settings: protein: recombinant; tags: MBP; chain copies: 2; label: 3' biotin on sense strand; blunt

B1: miR160b promoter G-box fragment (dsDNA)
DNA 1: AGACACGTGTAGAAATCTTCTAAACCC
DNA 2: GGGTTTAGAAGATTTCTACACGTGTCT
B1: binds.
